For assay [1], the target named is T1, human P2X4 (human, UniProt Q99571 1-388).
T1 sequence (looked up): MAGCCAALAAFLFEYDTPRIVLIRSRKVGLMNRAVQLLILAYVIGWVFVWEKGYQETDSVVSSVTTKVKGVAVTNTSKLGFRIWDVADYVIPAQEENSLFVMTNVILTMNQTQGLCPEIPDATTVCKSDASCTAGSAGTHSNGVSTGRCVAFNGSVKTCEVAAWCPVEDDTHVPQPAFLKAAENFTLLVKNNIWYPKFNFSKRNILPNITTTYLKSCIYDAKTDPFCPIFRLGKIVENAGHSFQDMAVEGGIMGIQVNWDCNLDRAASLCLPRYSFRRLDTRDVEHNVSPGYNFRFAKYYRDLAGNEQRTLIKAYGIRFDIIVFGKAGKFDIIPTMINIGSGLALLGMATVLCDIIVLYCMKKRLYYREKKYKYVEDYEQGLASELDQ
The experiment in a line: cell-based or functional assay.

Assay [2] addresses T1, human P2X4. The experiment in a line: cell-based or functional assay. This is another data set of the same source.

B1: Antibody 3 (antibody, V domains shown)
VH: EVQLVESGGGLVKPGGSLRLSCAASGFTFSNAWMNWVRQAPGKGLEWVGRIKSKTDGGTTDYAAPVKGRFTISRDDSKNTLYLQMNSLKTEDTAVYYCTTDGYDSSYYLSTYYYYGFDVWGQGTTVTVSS
VL: SSELTQDPAASVALGQTVTITCQGDSLRSYYASWYQQKPGQAPVLVFYGKNIRPSGIPDRFSGSDSRDTASLTITGAQADDEADYYCNSRDTSGNVVFGGGTKVTVL
Take B1: the “IC50 (nM), inhibition of human P2X4 currents in electrophysiology” value (from here on “IC50 (nM), inhibition … in electrophysiology”) with human P2X4 [1] amounted to 50 nM.

B2: Antibody 4 (antibody, V domains shown)
VH: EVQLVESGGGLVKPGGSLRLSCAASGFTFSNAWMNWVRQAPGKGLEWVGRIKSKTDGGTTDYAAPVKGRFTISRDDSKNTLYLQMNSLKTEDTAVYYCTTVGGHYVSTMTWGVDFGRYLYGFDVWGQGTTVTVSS
VL: QSVLTQPPSVSLSPGQTARITCSGDVLSKQFGYWYQQKPGQAPVVVIYNDSERPSGIPERFSGSSSGTTVTLTITGVQAEDEADYYCQSADSSGTVLFGGGTKLTVL
Regarding B2, in the assay with human P2X4 [2], the “IC50, inhibition of human P2X4 currents in electrophysiology” value was determined as 3.8 nM. In addition, in the assay with human P2X4 [1], the “IC50 (nM), inhibition … in electrophysiology” value was determined as 3.9 nM.

B3: Antibody 1 (antibody, V domains shown)
VH: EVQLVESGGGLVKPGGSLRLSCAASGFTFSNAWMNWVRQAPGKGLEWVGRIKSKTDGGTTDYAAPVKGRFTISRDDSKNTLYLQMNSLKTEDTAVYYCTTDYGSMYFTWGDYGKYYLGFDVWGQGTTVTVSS
VL: SYVLTQPPSVSVSPGQTATITCSGDTLPQRYAYWYQQKPGQAPILLIYKDSERPSGIPDRFSGSSSGTTVALTISGVQAEDEADYYCQSTDTSGVVFGGGTKVTVL
For B3, the “IC50 (nM), inhibition … in electrophysiology” value in the assay with human P2X4 [1] came out at 19.6 nM.

For the origin of these results see patent publication US10829540 (AstraZeneca / MedImmune, dated 2020).
